Source: patent publication US7097990B2, “Method of screening cell death inhibitor” (Astellas Pharma Inc., priority 2001, dated 2006)

Molecular target: PARP (Cricetulus griseus, UniProt Q9R152)
Assay: PARP inhibition in transfected CHO dhfr- cells, 3H-NAD incorporation
Details: H2O2 0.06%; cells co-expressing LTRPC2 and PARP-1 dominant negative mutant versus LTRPC2 alone

Sequence of PARP (Q9R152 2-1013): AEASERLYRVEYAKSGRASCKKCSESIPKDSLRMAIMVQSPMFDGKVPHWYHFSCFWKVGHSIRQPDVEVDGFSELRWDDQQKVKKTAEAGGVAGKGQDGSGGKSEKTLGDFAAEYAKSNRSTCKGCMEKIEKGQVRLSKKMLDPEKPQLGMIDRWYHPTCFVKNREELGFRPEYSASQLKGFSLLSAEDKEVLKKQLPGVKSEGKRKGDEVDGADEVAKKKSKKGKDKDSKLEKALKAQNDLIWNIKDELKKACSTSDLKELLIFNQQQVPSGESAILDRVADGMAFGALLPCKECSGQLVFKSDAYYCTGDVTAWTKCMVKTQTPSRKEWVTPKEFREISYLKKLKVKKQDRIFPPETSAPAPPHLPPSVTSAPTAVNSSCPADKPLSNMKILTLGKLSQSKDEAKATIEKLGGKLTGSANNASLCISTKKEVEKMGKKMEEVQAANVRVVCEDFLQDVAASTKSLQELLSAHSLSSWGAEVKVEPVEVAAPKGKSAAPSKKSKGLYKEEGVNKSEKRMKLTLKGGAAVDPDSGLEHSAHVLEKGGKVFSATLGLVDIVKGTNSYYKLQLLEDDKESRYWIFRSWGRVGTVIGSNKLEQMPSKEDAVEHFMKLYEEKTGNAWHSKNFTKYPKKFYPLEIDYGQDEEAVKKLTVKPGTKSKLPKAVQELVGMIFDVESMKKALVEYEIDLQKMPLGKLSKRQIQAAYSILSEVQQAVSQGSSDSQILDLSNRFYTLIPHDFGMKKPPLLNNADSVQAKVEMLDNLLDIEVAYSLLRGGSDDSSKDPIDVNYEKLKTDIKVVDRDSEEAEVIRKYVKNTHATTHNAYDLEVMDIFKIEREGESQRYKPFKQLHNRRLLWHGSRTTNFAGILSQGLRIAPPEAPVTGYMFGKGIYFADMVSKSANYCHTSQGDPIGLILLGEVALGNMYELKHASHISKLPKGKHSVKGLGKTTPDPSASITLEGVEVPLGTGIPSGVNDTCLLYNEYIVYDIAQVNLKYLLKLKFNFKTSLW

## PARP-1 dominant negative mutant: human PARP-1 DNA binding region (positions 1 to 374), amino acid sequence SEQ ID NO:20, co-expressed in cells
  3H radioactivity in comparison with the control cells: 67%
